Reference: patent publication US20180141989A1 (BOARD OF REGENTS OF THE UNIVERSITY OF OKLAHOMA, published 2018)
Where no end group is shown, it is not given here.

Legend:
[1] = molecular target: MBP-RAMP2 ECD [L106R]-(GS)5-CLR ECD-H6 fusion protein (human) (UniProt O60895); experiment: FP competition vs FITC-AM W/W probe, purified ECD fusion
[2] = molecular target: MBP-RAMP2 ECD [L106R]-(GS)5-CLR ECD-H6 fusion protein (human) (UniProt O60895); experiment: AlphaLISA competition: displaces Biotin-AM probe (25 nM) from the RAMP2-CLR ECD fusion protein (5 nM)
[3] = molecular target: MBP-RAMP2 ECD [L106R]-(GS)5-CLR ECD-H6 fusion protein (human) (UniProt O60895); experiment: AlphaLISA or AlphaScreen competition assays
[4] = molecular target: T1, MBP-RAMP1 ECD-(GS)5-CLR ECD-H6 fusion protein (human, UniProt O60894 24-111; Q16602 29-144); experiment: FP (anisotropy) competition: displaces FITC-Ahx-AM(37-52)NH2[S45W,Q50W] probe (7 nM) from MBP-RAMP1 ECD-(GS)5-CLR ECD-H6 (15 nM) [I-J) lower graph]
T1 construct: range 24-111;range 29-144; Tethered ECD fusion made in E. coli; used in the FP assay at 15 nM; also called MBP-hRAMP1.24-111-(Gly-Ser)5-hCLR.29-144-H6
Protocol: (§1) Fluorescence polarization peptide binding assay. […] The reactions (50 μL) were incubated for 2 hours at room temperature to reach equilibrium, and the anisotropy was measured in black half-area 96-well plates using a BMG LABTECH's POLARstar® Omega plate reader (Ortenberg, Germany). The reaction buffer was 50 mM HEPES, pH 7.5, 150 mM NaCl, 0.5 mg/ml fatty acid-free BSA, 0.5 mM EDTA, 0.5 mM maltose. KI values were calculated using nonlinear regression fitting of the competition curves to the exact analytical equations of Roehrl et al. (Biochemistry (2004) 43:16056-66) using GraphPad Prism 5.0 (GraphPad Software, San Diego Calif.).

[5] = molecular target: MBP-RAMP2 ECD [L106R]-(GS)5-CLR ECD-H6 fusion protein (human) (UniProt O60895); experiment: FP (anisotropy) competition: displaces FITC-Ahx-AM(37-52)NH2[S45W,Q50W] probe (7 nM) from MBP-RAMP2 ECD[L106R]-(GS)5-CLR ECD-H6 (110 nM) [I-K) panel K]
[6] = molecular target: MBP-RAMP2 ECD [L106R]-(GS)5-CLR ECD-H6 fusion protein (human) (UniProt O60895); experiment: ratio of FP KI values at the two ECD complexes
[7] = molecular target: MBP-RAMP2 ECD [L106R]-(GS)5-CLR ECD-H6 fusion protein (human) (UniProt O60895); experiment: FP (anisotropy) competition: displaces FITC-Ahx-AM(37-52)NH2[S45W,Q50W] probe (7 nM) from MBP-RAMP2 ECD[L106R]-(GS)5-CLR ECD-H6 (110 nM) [A-C) panel B]
[8] = molecular target: T1, MBP-RAMP1 ECD-(GS)5-CLR ECD-H6 fusion …; experiment: FP competition vs FITC-AM W/W probe, purified ECD fusion
Protocol: as §1
(§2) The large size difference between the MBP-RAMP ECD-CLR ECD fusion proteins (˜65 kDa) and the probe (˜2.5 kDa) ensures a significant anisotropy difference between bound and free states of the probe. […] Kd values for the probe at each of the tethered ECD fusion proteins were determined in equilibrium saturation binding experiments (data not shown), and KI values were determined for unlabeled peptides in equilibrium competition experiments (Table 1; FIGS. 2-5). The data were analyzed according to exact analytical equations using non-linear regression curve fitting in GraphPad Prism 5.0 (GraphPad Software) via user-defined equations.

[9] = molecular target: MBP-RAMP2 ECD [L106R]-(GS)5-CLR ECD-H6 fusion protein (human) (UniProt O60895); experiment: AlphaLISA competition vs Biotin-AM probe
[10] = molecular target: T1, MBP-RAMP1 ECD-(GS)5-CLR ECD-H6 fusion …; experiment: FP (anisotropy) competition: displaces FITC-Ahx-AM(37-52)NH2[S45W,Q50W] probe (7 nM) from MBP-RAMP1 ECD-(GS)5-CLR ECD-H6 (15 nM) [A-C) panel B]
Protocol: as §1

[11] = molecular target: T1, MBP-RAMP1 ECD-(GS)5-CLR ECD-H6 fusion …; experiment: AlphaLISA competition: displaces Biotin-CGRP probe (50 nM) from the RAMP1-CLR ECD fusion protein (5 nM)
Protocol: (§3) The probes were as described in Moad and Pioszak (Protein Sci. (2013) 22:1775-85). The reactions were incubated for 5 hours at room temperature to reach equilibrium, and the luminescence was measured in white 384-well plates using a BMG LABTECH's POLARstar® Omega plate reader (Ortenberg, Germany). The reaction buffer was 50 mM MOPS, pH 7.4, 150 mM NaCl, 7 mg/ml fatty acid-free BSA, and the streptavidin-coated donor beads and MBP-antibody coated acceptor beads were at 15 μg/ml each. IC₅₀ values were calculated using nonlinear regression fitting of the competition curves to a three-parameter, one-site competitive binding equation in GraphPad Prism 5.0 (GraphPad Software, San Diego Calif.).

[12] = molecular target: T1, MBP-RAMP1 ECD-(GS)5-CLR ECD-H6 fusion …; experiment: FP (anisotropy) competition: displaces FITC-Ahx-AM(37-52)NH2[S45W,Q50W] probe (7 nM) from MBP-RAMP1 ECD-(GS)5-CLR ECD-H6 (15 nM) [F-H) panel G]
Protocol: as §1

[13] = molecular target: MBP-RAMP2 ECD [L106R]-(GS)5-CLR ECD-H6 fusion protein (human) (UniProt O60895); experiment: FP (anisotropy) competition: displaces FITC-Ahx-AM(37-52)NH2[S45W,Q50W] probe (7 nM) from MBP-RAMP2 ECD[L106R]-(GS)5-CLR ECD-H6 (110 nM) [A-C) panel A]
[14] = molecular target: T1, MBP-RAMP1 ECD-(GS)5-CLR ECD-H6 fusion …; experiment: FP (anisotropy) competition: displaces FITC-Ahx-AM(37-52)NH2[S45W,Q50W] probe (7 nM) from MBP-RAMP1 ECD-(GS)5-CLR ECD-H6 (15 nM) [F-H) panel F]
Protocol: as §1

[15] = molecular target: T1, MBP-RAMP1 ECD-(GS)5-CLR ECD-H6 fusion …; experiment: ratio of FP KI values at the two ECD complexes
Protocol: as §1, §2

[16] = molecular target: MBP-RAMP2 ECD [L106R]-(GS)5-CLR ECD-H6 fusion protein (human) (UniProt O60895); experiment: FP (anisotropy) competition: displaces FITC-Ahx-AM(37-52)NH2[S45W,Q50W] probe (7 nM) from MBP-RAMP2 ECD[L106R]-(GS)5-CLR ECD-H6 (110 nM) [G-H) panel G]
[17] = molecular target: T1, MBP-RAMP1 ECD-(GS)5-CLR ECD-H6 fusion …; experiment: FP (anisotropy) competition: displaces FITC-Ahx-AM(37-52)NH2[S45W,Q50W] probe (7 nM) from MBP-RAMP1 ECD-(GS)5-CLR ECD-H6 (15 nM) [A-C) panel C]
Protocol: as §1
as §1, with “Single representative experiments conducted with duplicate samples are shown.” for “Fluorescence polarization peptide binding assay.”, “reactions” for “reactions (50 μL)”

[18] = molecular target: T2, MBP-RAMP1 ECD-(GS)5-CTR ECD-H6 fusion protein (human, UniProt O60894 27-118; P30988 34-141, limits assumed); experiment: AlphaLISA competition vs Biotin-AC413 probe, purified AMY1 ECD fusion
T2 construct: extracellular domain; CTR-based proteins were produced in HEK293T cells (N-glycosylated); also called RAMP1-CTR ECD; RAMP1-CTR
Protocol: as §3, with “A single representative experiment conducted with duplicate samples is shown. […]” for “The probes were as described in Moad and Pioszak (Protein Sci. (2013) 22:1775-85).”, “BSA” for “BSA,”

[19] = molecular target: T1, MBP-RAMP1 ECD-(GS)5-CLR ECD-H6 fusion …; experiment: FP (anisotropy) competition: displaces FITC-Ahx-AM(37-52)NH2[S45W,Q50W] probe (7 nM) from MBP-RAMP1 ECD-(GS)5-CLR ECD-H6 (15 nM) [D-E) panel D]
Protocol: as §1
as §1, with “Single representative experiments conducted with duplicate samples are shown.” for “Fluorescence polarization peptide binding assay.”, “reactions” for “reactions (50 μL)”

[20] = molecular target: T1, MBP-RAMP1 ECD-(GS)5-CLR ECD-H6 fusion …; experiment: FP (anisotropy) competition: displaces FITC-Ahx-AM(37-52)NH2[S45W,Q50W] probe (7 nM) from MBP-RAMP1 ECD-(GS)5-CLR ECD-H6 (15 nM) [D-E) panel E]
Protocol: as §1
as §1, with “Single representative experiments conducted with duplicate samples are shown.” for “Fluorescence polarization peptide binding assay.”, “reactions” for “reactions (50 μL)”

MBP-RAMP2 ECD [L106R]-(GS)5-CLR ECD-H6 fusion protein (human), sequence (O60895 other isoform, or with tags, fused parts or gaps L106R L106R): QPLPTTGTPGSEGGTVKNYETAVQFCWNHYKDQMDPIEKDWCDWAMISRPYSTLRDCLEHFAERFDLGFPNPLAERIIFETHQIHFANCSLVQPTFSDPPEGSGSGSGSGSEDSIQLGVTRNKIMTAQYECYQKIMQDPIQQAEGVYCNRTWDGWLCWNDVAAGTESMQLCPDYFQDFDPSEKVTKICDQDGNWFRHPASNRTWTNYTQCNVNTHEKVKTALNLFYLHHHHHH
T1 sequence (O60894 other isoform, or with tags, fused parts or gaps limits assumed, form in doubt): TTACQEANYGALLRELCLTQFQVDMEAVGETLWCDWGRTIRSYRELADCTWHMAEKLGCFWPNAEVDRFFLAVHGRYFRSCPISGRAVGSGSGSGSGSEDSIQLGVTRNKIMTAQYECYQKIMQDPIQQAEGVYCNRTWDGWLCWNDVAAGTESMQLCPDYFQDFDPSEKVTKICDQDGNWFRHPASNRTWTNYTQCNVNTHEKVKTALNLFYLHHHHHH
T2 sequence (O60894 other isoform, or with tags, fused parts or gaps limits assumed): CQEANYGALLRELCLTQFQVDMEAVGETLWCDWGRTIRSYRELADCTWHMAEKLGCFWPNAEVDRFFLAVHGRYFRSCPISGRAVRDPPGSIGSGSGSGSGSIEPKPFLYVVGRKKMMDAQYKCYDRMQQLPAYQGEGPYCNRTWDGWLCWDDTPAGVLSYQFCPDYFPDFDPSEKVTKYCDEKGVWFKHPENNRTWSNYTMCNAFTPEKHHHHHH

Binder: DKDNVAPRSKISPQGY-NH2 [AM(37-52)NH2]
- Ki [1]: 20400 nM
- pKI [1]: 4.69
- IC50 [2]: 5000 nM
- IC50 [3]: 5000 to 15000 nM

Binder: DKWNVAPRSKISPWGY-NH2 (also called AM(37-52)NH2 [D39W, Q50W]) [AM(37-52) D39W/Q50W]
- IC50 (read off the curve) [4]: ~400 nM
- IC50 (read off the curve) [5]: 300 nM

Binder: DKDNVAPRSKISPFGY-NH2 [AM(37-52)NH2 [Q50F]]
- Receptor Selectivity (fold, over RAMP1-CLR ECD) [6]: 5 fold
- IC50 (read off the curve) [7]: 4000 nM
- Ki [1]: 2140 nM
- pKI [1]: 5.67
- Ki [8]: 10500 nM
- pKI [8]: 4.98

Binder: DKDNVAPRSKISPWGY-NH2 [AM(37-52)NH2 [Q50W]]
- fold increase in affinity (over AM(37-52)NH2, implied) [9]: 100 fold
- IC50 (read off the curve) [7]: 600 nM
- IC50 (read off the curve) [10]: ~1000 nM
- IC50 [11]: 400 nM
- Ki [1]: 316 nM
- pKI [1]: 6.5
- IC50 [2]: 44 nM
- Ki [8]: 501 nM
- pKI [8]: 6.3

Binder: DKDNVAPRWLMSPWGF-NH2 [AM(37-52)NH2 [S45W, K46L, I47M, Q50W, Y52F]]
- IC50 (read off the curve) [12]: ~10 nM
- Ki [8]: 0.78 nM
- pKI [8]: 9.11

Binder: DKDNVAPRWKISPWGY-NH2 (also called S45W/Q50W double mutant) [AM(37-52)NH2 [S45W, Q50W]]
- IC50 (read off the curve) [10]: ~100 nM
- IC50 [11]: 17 nM
- Ki [1]: 81.3 nM
- pKI [1]: 7.09
- IC50 [2]: 20 nM
- IC50 (read off the curve) [13]: 200 nM
- Ki [8]: 44.7 nM
- pKI [8]: 7.35

Binder: DKDNVAPRTLISPWGY-NH2 [AM(37-52)NH2[S45T, K46L, Q50W]]
- IC50 (read off the curve) [14]: ~200 nM
- Ki [1]: 1570 nM
- pKI [1]: 5.8
- Ki [8]: 65.6 nM
- pKI [8]: 7.18
- Receptor Selectivity (fold, over RAMP2-CLR ECD) [15]: 24 fold

Binder: DKDNVAPRWLIGPWGF-NH2 [AM(37-52)NH2 [S45W, K46L, S48G, Q50W, Y52F]]
- Ki [1]: 1250 nM
- pKI [1]: 5.9
- IC50 (read off the curve) [16]: 200 nM

Binder: FVPTDVGPWSF-NH2 [CGRP(27-37)NH2 [N31D, S34P, K35W, A36S]]
- Ki [1]: 2450 nM
- pKI [1]: 5.61
- IC50 (read off the curve) [17]: ~10 nM
- Ki [8]: 1.32 nM
- pKI [8]: 8.88
- Receptor Selectivity (fold, over RAMP2-CLR ECD) [15]: 1860 fold
- IC50 [18]: 260 nM

Binder: FVPTDTGPWGF-NH2 [CGRP(27-37)NH2 [N31D, V32T, S34P, K35W, A36G]]
- Ki [8]: 6.85 nM
- pKI [8]: 8.16
- IC50 (read off the curve) [19]: ~30 nM

Binder: FVPTDTGPWSF-NH2 [CGRP(27-37)NH2 [N31D, V32T, S34P, K35W, A36S]]
- Ki [1]: 2750 nM
- pKI [1]: 5.56
- Ki [8]: < 1 nM
- pKI [8]: > 9
- IC50 (read off the curve) [20]: ~10 nM
- Receptor Selectivity (fold, over RAMP2-CLR ECD) [15]: ≥ 2750 fold
